Reference: article doi:10.1101/2025.04.16.649111, “Nanobinders for Synaptotagmin 1 enable the analysis of synaptic vesicle dynamics in rodent and human models” (bioRxiv, 2025)

What was measured:
Details in all cases: one partner purified
[1] = target: T1, endogenous Synaptotagmin 1 of mouse brain and mouse neurons (mouse (endogenous in brain and primary …, UniProt P46096)); test: co-IP; immunoprecipitation: GFP-tagged nanobody pre-loaded on GFP Selector beads, incubated 1 h at 4 °C with pre-cleared lysate of WT or Syt1 KO mouse brain; blot with Syt1 cytoplasmic antibody
T1 construct: Synaptotagmin 1, mouse, endogenous whole protein (in brain extract for the immunoprecipitation, on living neurons for the uptake); also called endogenous Syt1; Syt1; source: endogenous, WT mouse brain lysate; endogenous, mouse primary neurons
T1 sequence (P46096 whole entry): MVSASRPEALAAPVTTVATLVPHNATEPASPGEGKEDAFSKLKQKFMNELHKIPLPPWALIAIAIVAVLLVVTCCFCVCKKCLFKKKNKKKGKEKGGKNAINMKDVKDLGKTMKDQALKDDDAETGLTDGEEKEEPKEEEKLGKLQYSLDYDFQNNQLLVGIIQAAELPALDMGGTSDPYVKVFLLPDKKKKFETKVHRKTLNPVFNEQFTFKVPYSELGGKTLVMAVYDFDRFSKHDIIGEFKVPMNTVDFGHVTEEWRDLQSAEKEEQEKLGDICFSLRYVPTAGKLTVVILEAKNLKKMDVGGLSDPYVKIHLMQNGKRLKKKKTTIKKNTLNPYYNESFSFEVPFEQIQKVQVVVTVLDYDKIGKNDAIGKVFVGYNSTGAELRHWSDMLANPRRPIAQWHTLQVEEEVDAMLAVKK

[2] = target: T2, endogenous human Synaptotagmin 1 in human iPSC-derived hypothalamic-like neurons (human, UniProt P21579); test: immunostaining of cells or tissue; live uptake in 80-day old human iPSC-derived hypothalamic neurons: surface pool blocked with 4.85 µM unlabeled nanobody, then 5.5 µM pHluorin-labelled nanobody with 30 mM KCl or 1 µM TTX, 20 min at 37 °C; fixed, anti-GFP and anti-Syt1
T2 construct: Synaptotagmin 1, human, endogenous; also called human Syt1; source: endogenous, human iPSC-derived hypothalamic neurons (living cells)
T2 sequence (P21579 whole entry): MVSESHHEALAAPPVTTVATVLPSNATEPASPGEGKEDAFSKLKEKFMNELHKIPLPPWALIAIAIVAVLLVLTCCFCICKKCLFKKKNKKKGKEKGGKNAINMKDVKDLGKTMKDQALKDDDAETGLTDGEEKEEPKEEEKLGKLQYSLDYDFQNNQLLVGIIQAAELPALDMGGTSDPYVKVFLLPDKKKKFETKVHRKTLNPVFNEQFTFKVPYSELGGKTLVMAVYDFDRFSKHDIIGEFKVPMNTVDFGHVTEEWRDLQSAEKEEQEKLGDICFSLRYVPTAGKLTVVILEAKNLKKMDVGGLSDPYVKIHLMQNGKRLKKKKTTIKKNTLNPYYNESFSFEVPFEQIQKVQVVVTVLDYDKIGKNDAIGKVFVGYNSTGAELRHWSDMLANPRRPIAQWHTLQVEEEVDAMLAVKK

[3] = target: T3, endogenous Synaptotagmin 1 of primary hippocampal neurons (rat) (rat (endogenous in hippocampal neurons), UniProt P21707); test: proximity labelling; NbLumSyt1-APEX2 taken up live by primary neurons (30 min with biotin-phenol), 1 mM H2O2 for 30 s; streptavidin bead enrichment, LC-MS/MS; controls NbALFA-APEX2 or no nanobody
T3 construct: Synaptotagmin 1, endogenous in primary hippocampal neurons; the spectra were searched against the Rattus norvegicus proteome (UP000234681) and neurons were in most cases from Wistar pups; also called Syt1; Syt1-lum; source: endogenous, primary hippocampal neurons (living cells)
T3 sequence (P21707 whole entry): as the sequence (P46096 whole entry) above, with R6H counted along it

B1: NbLumSyt1 fused to a GFP-tag (VHH)
VHH: EVQLVESGGGLVQTGGSLRLSCTASGSIGSISVMGWYRQVPGTQYELVAGISRGGSTWYEDSVKGRFTISRDNAKNTLYLQMNSLKPEDTGMYYCAGGDYSDRLGSWGQGTQVTVSS
notes: as the VHH of m1: NbLumSyt1, clone 1F12; PDB 8B8I chain A; Held on GFP Selector beads in the immunoprecipitation; detected with anti-GFP in the uptake assay; also called GFP tagged Nanobody; GFP-tagged nanobody; source: E. coli NEB SHuffle Express T7, purified (Ni-NTA, protease elution, MonoQ)
- binding result [1]: binds

B2: NbLumSyt1-pHluorin (VHH)
VHH: EVQLVESGGGLVQTGGSLRLSCTASGSIGSISVMGWYRQVPGTQYELVAGISRGGSTWYEDSVKGRFTISRDNAKNTLYLQMNSLKPEDTGMYYCAGGDYSDRLGSWGQGTQVTVSS
notes: as the VHH of m1: NbLumSyt1, clone 1F12; PDB 8B8I chain A; Detected with anti-GFP after fixation in the human neuron uptake; also called pHluorin-labelled Syt1 nanobody; Syt1 pHluorin Nb; source: E. coli NEB SHuffle Express T7, purified (Ni-NTA, protease elution, MonoQ)
- binding result [2]: binds

B3: NbLumSyt1-APEX2 (VHH)
VHH: EVQLVESGGGLVQTGGSLRLSCTASGSIGSISVMGWYRQVPGTQYELVAGISRGGSTWYEDSVKGRFTISRDNAKNTLYLQMNSLKPEDTGMYYCAGGDYSDRLGSWGQGTQVTVSS
notes: as the VHH of m1: NbLumSyt1, clone 1F12; PDB 8B8I chain A; also called Nb-APEX2
- binding result [3]: binds
